Data as given in US20150183839A1, “SOYBEAN NODULATION REGULATORY PEPTIDES AND METHODS OF USE” (priority 2010, published 2015).
Entries after “also recorded” stand apart in the source; their conditions may differ.

Legend:
soybean nodulation [1] = assay: Nodule numbers of soybean plants treated with KNO3 (incl. grafted plants); format: in vivo, Glycine max
Experimental: (§1) Soybean (Glycine max) lines used include the wild type Williams and its isogenic supernodulating nark mutant lines, nod4 and nod3-7 and the wild type Bragg and its isogenic hypernodulating nark mutant line, nts1116. Plants were grown in controlled glasshouse conditions (28° C./26° C. day/night, 16 hour day) in autoclaved pots and vermiculite where sterile growing conditions were required. Seeds requiring sterilisation were treated with 70% ethanol, 3% H2O2 for 1 min, followed by several rinses with water. Plants were watered as required with a modified nutrient solution lacking nitrogen (Herridge, 1982). Plants were inoculated with approximately OD600 0.01 Bradyrhizobium japonicum CB1809 or the corresponding NF mutant nodU grown in yeast-mannitol broth (YMB) at 28° for two days. For nitrate treatments, plants were watered with the indicated solutions of KNO3 every two days. For grafting experiments, reciprocal grafting was carried out 8 d after sowing and the graft unions were allowed to recover for 6 d before B. japonicum inoculation. Nodulation was scored three weeks after inoculation.
Soybean plants were treated with either 0, 2, 5, 10 or 15 mM KNO3 for 2 days prior to, and for 2 weeks following, rhizobia inoculation. The treated plants were then harvested simultaneously for RT-qPCR and nodule count studies. […]

[2] = system: CLE30, CLE60 and CLE80 gene expression in soybean root; assay: RT-qPCR of CLE gene expression in soybean roots after nitrogen source treatment; format: in vivo, Glycine max; details: for expression of CLE30 and CLE80 in roots / CLE60 expression in roots: 10 mM for two weeks; for expression of CLE30 and CLE80 in roots: relative to KCl control; for CLE60 expression in roots: relative to control
Experimental: FIG. 15. To test if CLE60 (GmNIC1) is induced by alternative nitrogen sources we treated soybeans with 10 mM solutions of the following chemicals for two weeks prior to harvesting root tissue to analyse gene expression: Ammonium Chloride (NH4Cl), Potassium Nitrate (KNO3) and Potassium Chloride control (KCl).
as §1
For gene expression analyses, tissue was snap frozen and homogenized in liquid nitrogen using a mortar and pestle. RNA was extracted using TRIzol reagent according to the manufacturer's instructions (Invitrogen). DNAse treatment (Fermentas, Ontario) was performed on 1 μg of RNA in the presence of MgCL2. cDNA was synthesised with SuperScript III (Invitrogen) from 0.5 μg DNAse treated RNA. RT-qPCR was conducted using an ABI 7900HT cycler in 384 well plates with SYBR green fluorescence detection. All reactions were performed in duplicate for at least three biological replicates using intron-spanning primers where possible and a target amplicon of approximately 100 bp (full primer sequences are included in Table 2). Gene expression values were calculated relative to ATP synthase after normalisation for PCR efficiency and plot correlation (R2) values of each primer pair as determined by LinRegPCR 7.5 (Ramakers et al., 2003).
In a preliminary study to determine if nitrate can induce the expression of the soybean CLE genes, root tissue was harvested after treatment with either 0 mM (water control) or 10 mM KNO3 for two weeks. […] A more thorough study to identify the induction of CLE60 expression by nitrate was subsequently performed using, root tissue harvested at 0, 8 or 24 h after the commencement of the above treatments.
Soybean plants were treated with either 0, 2, 5, 10 or 15 mM KNO3 for 2 days prior to, and for 2 weeks following, rhizobia inoculation. The treated plants were then harvested simultaneously for RT-qPCR and nodule count studies.

[3] = system: Medicago truncatula nodulation; details: cited from earlier work
soybean nodulation [4] = assay: Over-expression of CLE genes in transgenic soybean hairy roots, nodule number (Example 1); format: in vivo, Glycine max; details: for NARK/SUNN/HAR1 dependent inhibition / Systemic activity: Glycine max; for nodulation (nodule number) on over-expression: vs vector-only control
Experimental: as §1
The full length CDS of CLE30, CLE60 and CLE80 was directionally cloned into the pKANNIBAL vector for expression of RNAi constructs (Wesley et al., 2001). Pfu polymerase (Stratagene, La Jolla, Calif.) was used to amplify PCR products incorporating restriction nuclease sites from cDNA samples shown to express the target gene. XhoI/EcoRI (for) and KpnI (rev) restriction sites were included in the primer sequences depending on internal restriction sites of each gene (full primer sequences are included in Table 2). Likely clones were confirmed by direct DNA sequencing and capillary separation. Constructs were sub-cloned into p15SRK2 or pM1KCK1 integration vectors (A. Kereszt, unpublished) as a NotI fragment before tri-parental mating to introduce the constructs into Agrobacterium rhizogenes K599. For transgenic root verification in the CLE60 over-expression experiments the DsRed reporter was subcloned into pM1KCK1 from pHairyRed, which is a modified version of pCAMBIA (M-H Lin, P M Gresshoff, B J Ferguson, unpublished). Tri-parental mating was used to introduce DsRed into A. rhizogenes K599 carrying the CLE60 construct. A. rhizogenes were subsequently used for the induction of transgenic soybean hairy roots according to Kereszt et al (2007).
To determine if the soybean CLE peptides regulate nodulation in a NARK-dependent manner, a reverse-genetics approach using a hairy-root transformation system was used. Over-expression of a systemic Q signal would be expected to inhibit nodulation, even in non-transformed roots. To test this, the complete CDS of CLE30, CLE60 or CLE80 was cloned into the pKANNIBAL vector for the expression of efficient RNAi constructs (Wesley et al., 2001). However, to generate over-expressing constructs, the antisense construct was omitted and the Pdk intron of pKANNIBAL was left intact. Previous studies have shown the inclusion of an intron can lead to higher and more consistent expression levels in transgenic plants (Norris et al., 1993).
Tri-parental mating was used to integrate the constructs into Agrobacterium rhizogenes K599 which induces the formation of transgenic hairy roots in soybean (Kereszt et al., 2007).

P. vulgaris nodulation = assay: Overexpression of GmRIC1 in hairy roots of P. vulgaris, nodules counted; format: in vivo, Phaseolus vulgaris; details: vs vector only
Experimental: (§2) Transformation was done using the hairy root method. Agrobacterium rhizogenes containing a vector with the RIC1 gene (CLE30) and 35s promoter was injected into the stems of young plants. Once transgenic ‘hairy roots’ began growing from the stems the primary roots were removed and the plants with the transgenic roots were replanted and inoculated with the appropriate rhizobia strain.
(§3) All plants were grown in and in 30 well seed trays of grade 3 vermiculite. G. soja seeds were scarified and soaked in MQ H2O before planting. All plants were grown in growth cabinets under 16 h day and 8 h night conditions. P. vulgaris and G. max were grown at 28° C. G. soja were grown at 24° C. All plants were fertilised with a no nitrogen fertiliser and B&D solution (Broughton & Dilworth 1971).
(§4) A. rhizogenes K599 with either p15SRK2::GmRIC1 ox or p15SRK2 were grown on LB media (10 g/L Tryptone, 5 g/L Yeast extract, 10 g/L NaCl) for 2 days at 28° C. The bacteria were harvested by scraping it from the agar plate. The harvested bacteria were suspended in 3 mL MQ H2O, ensuring no lumps remained.
(§5) When all plants had unfolded cotyledons they were injected at the hypocotyl as close to the junction of the cotyledons as possible with the A. rhizogenes solutions (Kereszt et al, 2007; Estrada-Navarrete, 2006). Half of each of the WT and mutant lines received A. rhizogenes p15SRK2+GmRIC1 OX and the other half of the plants received A. rhizogenes p15SRK2; Totalling 4 treatment groups.
(§6) The infection technique was the same for all species using A. rhizogenes K599. To increase the likelihood of the K599 producing hairy roots, the A. rhizogenes was inoculated with 1 mL 200 μM acetosyringone one hour prior to harvesting the bacteria. After infection all seed trays were misted with H2O, covered and sealed to ensure high humidity.
Once root tips were visible at the point of infection, the primary roots of the plants were removed and the hairy roots were re-planted. Plants were left in the growth cabinets for one week to form an adequate root system. The plants were subsequently transferred to the glasshouse and re-potted into larger pots. After re-potting plants were also inoculated with the appropriate strain of rhizobia for that particular species. Plants were watered and fertilised with B&D solution (Broughton & Dilworth 1971). After 2-3 weeks plants were uprooted and the nodules counted.

G. soja nodulation = assay: Overexpression of GmRIC1 in hairy roots of G. soja, nodules counted; format: in vivo, Glycine soja; details: WT G. soja, vs vector only
Experimental: as §2, §3
as §4, with “remained. […]” for “remained.”
Once root tips were visible at the point of infection, the primary roots of the plants were removed and the hairy roots were re-planted. […] After 2-3 weeks plants were uprooted and the nodules counted.

G. max nodulation = assay: Overexpression of GmRIC1 in hairy roots of G. max, nodules counted (Example 2); format: in vivo, Glycine max; details: vs empty vector; for nodulation on overexpression: G. max WT (Williams)
Experimental: as §2, §3, §4, §5, §6
Once root tips were visible at the point of infection, the primary roots of the plants were removed and the hairy roots were re-planted. Plants were left in the growth cabinets for one week to form an adequate root system. […] After 2-3 weeks plants were uprooted and the nodules counted.

[5] = nod4 supernodulation nark mutant plants
[6] = wild-type (Williams) soybean, transgenic hairy roots

O=[N+]([O-])[O-].[K+] [KNO3, Potassium Nitrate]
nodule numbers with KNO3 concentration (soybean nodulation [1]; 0, 2, 5, 10 or 15 mM KNO3, 2 weeks after inoculation): reduced in an inverse manner
nodule numbers of grafted plants (soybean nodulation [1]; 5 mM or 10 mM KNO3, WT scion, wild-type rootstock compared to nod4 mutant rootstock): reduced significantly
CLE30 expression in roots ([2]; 10 mM KNO3 for two weeks vs 0 mM water control): unchanged
expression of CLE30 and CLE80 in roots [2]: not that of CLE80 or CLE30
CLE60 expression in roots [2]: significantly induced expression of CLE60
KNO3 level at which CLE60 was significantly induced (as low as) ([2]; 2 days prior to and 2 weeks following rhizobia inoculation): 2 mM

Cl.N [NH4Cl, Ammonium Chloride]
expression of CLE30 and CLE80 in roots [2]: did not affect expression
CLE60 expression in roots [2]: induced expression of CLE60

CLE12: Medicago truncatula CLE peptide reported to reduce nodulation (Mortier et al., 2010) (LEGGSNIDSQRLLHELMVDRIKQKRSRTDLEDKAVPGDRLSPGGPNHIHN; UniProt G7ZZZ3 32-81, looked up)
NARK/SUNN/HAR1 dependent inhibition [3]: partial
Systemic activity [3]: yes

CLE13: Medicago truncatula CLE peptide reported to reduce nodulation (Mortier et al., 2010) (LRDHPLIHKNIDSRSLLQKLRIHISNHKQVRDISGDRLSPAGPDPQHNGRSPPRK; UniProt G7JV15 30-84, looked up)
NARK/SUNN/HAR1 dependent inhibition [3]: partial
Systemic activity [3]: yes

B1: CLE30: Glycine max CLAVATA3/ESR-related (CLE) protein, SEQ ID NO:5; rhizobia induced CLE, over-expressed in transgenic hairy roots (protein)
chain: MANATMATRVSILIALIILSTFFMTLQASNLHGHPFIRENNIADSHHFLHKYLDDLSKHIHVQDADDAPHKDGNTHRLAPEGPDPHHNFATPPRN
modifications: Glycine max
notes: rhizobia induced CLE, over-expressed in transgenic hairy roots
NARK/SUNN/HAR1 dependent inhibition (soybean nodulation [4]): yes
Systemic activity (soybean nodulation [4]): yes
nodulation (nodule number) on over-expression (soybean nodulation [4]; [5]): no reduction in the nodule numbers; also recorded: complete lack of nodule inhibition; also recorded: nodule numbers were not reduced
nodulation (nodule number) on over-expression (soybean nodulation [4]; [6]): completely abolishes soybean nodulation; also recorded: completely eliminated nodulation; also recorded: eliminated nodulation completely; also recorded: nodules were eliminated
nodulation on overexpression (P. vulgaris nodulation; P. vulgaris R32 supernodulation (AON) mutant): no effect
nodulation on overexpression (P. vulgaris nodulation; P. vulgaris R32 supernodulation (AON) mutant, listed as GmRIC1): no significant effect
nodulation on overexpression (P. vulgaris nodulation; P. vulgaris WT cv. OAC RICO): inhibits nodulation
nodulation on overexpression (P. vulgaris nodulation; P. vulgaris WT cv. OAC RICO, listed as GmRIC1): inhibition of nodulation
nodulation on overexpression (G. soja nodulation): inhibits nodulation
nodulation on overexpression (G. soja nodulation; listed as GmRIC1): completely inhibited nodulation; also recorded: complete inhibition of nodulation
nodulation on overexpression (G. max nodulation): inhibits nodulation
nodulation on overexpression (G. max nodulation; listed as GmRIC1): completely inhibits nodulation
nodule numbers on overexpression (G. max nodulation; G. max nod4 lacking functional NARK): nodule numbers were unchanged

B2: CLE80: Glycine max CLE protein, SEQ ID NO:7; rhizobia inoculation induced CLE (protein)
chain: MGNTSATLVPILALIMFSTFFMTLQARSLHGHNPLFAHKKVVDIQNFLHKSGIHLSKRVRIPFGDDLPLAPADRLAPGGPDPQHNVRAPPRKP
modifications: Glycine max
NARK/SUNN/HAR1 dependent inhibition (soybean nodulation [4]): yes
Systemic activity (soybean nodulation [4]): yes
nodulation (nodule number) on over-expression (soybean nodulation [4]; [5]): no reduction in the nodule numbers; also recorded: complete lack of nodule inhibition; also recorded: nodule numbers were not reduced
nodulation (nodule number) on over-expression (soybean nodulation [4]; [6]): completely abolishes soybean nodulation; also recorded: completely eliminated nodulation; also recorded: eliminated nodulation completely; also recorded: nodules were eliminated

B3: CLE60: Glycine max CLE protein, SEQ ID NO:6; nitrate induced CLE acting locally in the root (protein)
chain: MLEALGEMANAKQVLCLILLVLLFSKLESRSLEAFIEGKKTLAKGCSRELIEKSQLLKASFAKATTRFTNPRVSKRLSPGGPDQKHH
modifications: Glycine max
notes: nitrate induced CLE acting locally in the root
NARK/SUNN/HAR1 dependent inhibition (soybean nodulation [4]): yes
Systemic activity (soybean nodulation [4]): no
nodulation (nodule number) on over-expression (soybean nodulation [4]; [5]): no corresponding reduction in nodulation; also recorded: nodule numbers were not reduced
reduction in nodulation (soybean nodulation [4]; over-expression, wild-type soybean): ~50%
nodulation (nodule number) on over-expression (soybean nodulation [4]; [6]): only partially reduces nodulation; also recorded: reduced nodulation by approximately half; also recorded: nodules were reduced or partially eliminated
